Test results published in patent US20230348578A1 (BETH ISRAEL DEACONESS MEDICAL CENTER, published 2023).

Target: cis P-tau in cultured neurons stressed by hypoxia
Assay: cell-based or functional assay

Binder | Cis P-tau elimination
Cis-mAb HT2 (humanized) (antibody, V domains shown) VH: QVQLVQSGAEVKKPGASVKMSCKASGYTFTSYWIHWVKQRPGQGLEWIGVIDPSDSYTRYNQKFKGRATLTVDTSASTAYMELSSLRSEDTAVYYCTTWEVDYWGQGTLVTVSS VL: DVVMTQSPLSLPVTLGQPASISCRSSQSLVHSDGNTYLHWYLQKPGQSPQLLIYKVSNRFSGVPDRFSGSGSGTDFTLKISRVEAEDVGVYFCSQSTHVPWTFGGGTKVEIK | 1.5 relative (HT13 = 1.0)
Cis-mAb HT1 (humanized) (antibody, V domains shown) VH: QVQLVQSGAELKKPGASVKMSCKASGYTFTSYWIHWVKQRPGQGLEWIGVIDPSDSYTRYNQKFKGRATLTVDTSASTAYMQLSSLTSEDSAVYYCTTWEVDYWGQGTTVTVSS VL: DVVMTQSPLSLPVTLGQPASISCRSSQSLVHSDGNTYLHWYLQKPGQSPQLLIYKVSNRFSGVPDRFSGSGSGTDFTLKISRVEAEDVGVYFCSQSTHVPWTFGGGTKVEIK | 1.7 relative (HT13 = 1.0)
Cis-mAb HT8 (humanized) (antibody, V domains shown) VH: QVQLVQSGAEVKKPGASVKVSCKASGYTFTSYWIHWVRQRPGQGLEWIGVIDPSDSYTRYNQKFKGRVTITRDTSASTAYMELSSLRSEDTAVYYCTTWEVDYWGQGTLVTVSS VL: DVVMTQSPLSLPVTLGQPASISCRSSQSLVHSDGNTYLHWYLQKPGQSPQLLIYKVSNRDSGVPDRFSGSGSGTDFTLKISRVEAEDVGVYFCSQSTHVPWTFGGGTKVEIK | 0.9 relative (HT13 = 1.0)
Cis-mAb HT3 (humanized) (antibody, V domains shown) VH: QVQLVQSGAEVKKPGASVKVSCKASGYTFTSYWIHWVRQRPGQGLEWIGVIDPSDSYTRYNQKFKGRVTLTVDTSASTAYMELSSLRSEDTAVYYCTTWEVDYWGQGTLVTVSS VL: DVVMTQSPLSLPVTLGQPASISCRSSQSLVHSDGNTYLHWYLQKPGQSPQLLIYKVSNRFSGVPDRFSGSGSGTDFTLKISRVEAEDVGVYFCSQSTHVPWTFGGGTKVEIK | 1.6 relative (HT13 = 1.0)

The next lines start with the values.

Cis P-tau elimination | Binder
1 relative (HT13 = 1.0) | Cis-mAb HT13 (mouse-human chimera, control) (antibody, V domains shown) VH: QVQLQQPGAELVKPGASVKMSCKASGYTFTSYWIHWVKQRPGQGLEWIGVIDPSDSYTRYNQKFKGKATLTVDTSSSTAYMQLSSLTSEDSAVYYCTTWEVDYWGQGTTLTVSS VL: DVVMTQTPLSLPVSLGDQASISCRSSQSLVHSDGNTYLHWYLQKPGQSPKLLIYKVSNRFSGVPDRFSGSGSGTDFTLKISRLEAEDLGVYFCSQSTHVPWTFGGGTKLEIK
0.9 relative (HT13 = 1.0) | Cis-mAb HT10 (humanized) (antibody, V domains shown) VH: QVQLVQSGAEVKKPGASVKMSCKASGYTFTSYWIHWVKQRPGQGLEWIGVIDPSDSYTRYNQKFKGRATLTVDTSASTAYMELSSLRSEDTAVYYCTTWEVDYWGQGTLVTVSS VL: DVVMTQSPLSLPVTLGQPASISCRSSQSLVHSDGNTYLHWYLQKPGQSPQLLIYKVSNRFSGVPDRFSGSGSGTDFTLKISRVEAEDVGVYYCSQSTHVPWTFGGGTKVEIK
0.8 relative (HT13 = 1.0) | Cis-mAb HT18 (humanized) (antibody, V domains shown) VH: QVQLVQSGAEVKKPGSSVKVSCKASGYTFTSYWIHWVRQAPGQGLEWMGVIDPSDSYTRYNQKFKGRVTITRDTSMSTAYTELSSLRSEDTAVYYCTTWEVDYWGQGTLVTVSS VL: DIQMTQSPSTLSASVGDRVTITCRSSQSLVHSDGNTYLHWYQQKPGKAPKLLIYKVSNRFSGVPSRFSGSGSGTEFTLTISSLQPDDFATYYCSQSTHVPWTFGQGTKLEIK
